Measured values reported in the supplement of paper PMC10567573.
± gives the standard deviation.

Assay: protein stability index of a GFP-peptide fusion (GPS, HEK-293T) (PSI 1-6); higher = more stable
[1] = treatment: DMSO, c terminus: a fixed tail appended
[2] = treatment: MLN4924 1 uM, 8 h, c terminus: a fixed tail appended
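Further: 24-mer peptide tiles fused after GFP, lentivirally expressed, FACS-sorted into six equal bins by GFP/DsRed ratio, decoded by Illumina sequencing, PSI is the read-weighted mean bin number.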

Sequence | protein stability index [1] | protein stability index [2] | protein stability index (treatment: DMSO, c terminus: native) | protein stability index (treatment: MLN4924 1 uM, 8 h, c terminus: native)
NKQAYDLAKALLKRTAQAIEPYIT [PDS5B] | 2.54 ± 0.46 | 2.63 ± 0.37 | – | –
NLIKSENYGKILVEKNEHCIENNI [R3HDM1] | 3.5 ± 0.5 | 3.49 ± 0.65 | – | –
NLIYRDVKPENFLIGRPGNKTQQV [CSNK1G3] | 3.27 ± 0.1 | 3.25 ± 0.22 | – | –
NLLLAKGANINAFDKKDRRALHWA [ANKRD44] | 2.32 ± 0.34 | 2.5 ± 0.17 | – | –
NLPCNKFKNRLVNIMPYESTRVCL [PTPRD] | 2.15 ± 0.23 | 2.65 ± 0.96 | – | –
NMEELTEVITAAEFHPHHCNTFVY [PPP2R2B] | 2.38 ± 0.25 | 2.59 ± 0.33 | – | –
NMLFQQNKDGIGEICLWGRHIFMG [ACSBG2] | 2.3 ± 0.33 | 2.3 ± 0.54 | – | –
NNDCRIYVGNLPPDIRTKDIEDVF [SRSF1] | 3.09 ± 0.31 | 3.3 ± 0.37 | – | –
NPFQDPAVIQHRPSRQYATLDVYN [SCAMP3] | 3.6 ± 0.28 | 3.62 ± 0.19 | – | –
NPKWTKWLQKLCCPCCFGRDCLVL [PI4K2A] | 2.79 ± 0.3 | 2.72 ± 0.15 | – | –
NPNSSSGKGSGGNAGSYIPSYTSW [DLX1] | 3.44 ± 0.14 | 3.43 ± 0.4 | – | –
NQSVEPKKEEPEPETEAVSSSQEI [ZMYND11] | 5.25 ± 1 | 5.29 ± 0.52 | – | –
NRRGGPPFAFVEFEDPRDAEDAVY [SRSF1] | 3.91 ± 0.21 | 4.21 ± 0.26 | – | –
NSASDPSLKDGLSDSDSELSSSEG [PSD2] | 5.69 ± 0.14 | 5.61 ± 0.19 | – | –
NSDQTTCRIQDLCAMEDHNCEQLC [MATN2] | 4.04 ± 0.29 | 4.05 ± 0.23 | – | –
NSKEDAFSGTDWMLEKMDLKEFDL [ATF4] | 4.6 ± 0.26 | 4.55 ± 0.2 | – | –
NSSVWNSHLQTNYSKTFQRSNVDF [NECAB1] | 2.65 ± 0.18 | 2.77 ± 0.32 | – | –
NTLSVSYKKGRMMKDISNLEENDE [SLC6A17] | 4.91 ± 0.3 | 5.08 ± 0.23 | – | –
NTQTPVQPPPPPPPPPMQPTVPSA [CCDC6] | 5.05 ± 0.48 | 5 ± 0.1 | – | –
NVIETCKEAGVQKLILTSSASVIF [NSDHL] | 2.69 ± 0.27 | 2.86 ± 0.71 | – | –
NVLKIAPESAIKFMAYEQIKRLVG [SLC25A25] | 3.07 ± 0.54 | 3.04 ± 0.67 | – | –
NVMTQSFGAVNLSSPSNMLPVRPQ [CLINT1] | 3.86 ± 0.2 | 3.99 ± 0.51 | – | –

Sequence | protein stability index [1] | protein stability index [2] | protein stability index (treatment: DMSO, c terminus: native) | protein stability index (treatment: MLN4924 1 uM, 8 h, c terminus: native)
NWATTPSSQKKDTSSSTVVSTQRS [TIA1] | 4.83 ± 0.19 | 4.92 ± 0.18 | – | –
PACLGQPHTPGKPTSSCTSRSAPP [FOXJ1] | 4.51 ± 0.13 | 4.69 ± 0.11 | – | –
PAFTVWCGSFQVTTGLQVPSAVRC [FSD1] | 2.63 ± 0.6 | 2.56 ± 0.54 | – | –
PAPPSDALLDLHFPSDHLGDLGDP [TFE3] | 5 ± 0.23 | 5.1 ± 0.17 | – | –
PATGRSGPLPPPPPGAGGPPMPPP [WAS] | 4.74 ± 0.28 | 4.88 ± 0.22 | – | –
PAVRQRVIEEAKTAFLLNIQLFEE [HMOX1] | 2.66 ± 0.37 | 3.17 ± 0.26 | – | –
PCELPCKEYDVARNTGAYTSSGLA [TEKT4] | 4.18 ± 0.19 | 4.23 ± 0.13 | – | –
PDCGKAFVSRYKLMRHMATHSPQK [PLAGL1] | 2.88 ± 0.24 | 3 ± 0.22 | – | –
PDECGKTEFTRFLCSSPLEAETPP [ATE1] | 4.8 ± 0.071 | 4.88 ± 0.13 | – | –
PDEMRMQALLIRERILGPSHPDTS [FEM1A] | 3.29 ± 0.26 | 3.56 ± 0.19 | – | –
PDPDAWLRALGELLRRDLGVGTSM [FANCE] | 1.86 ± 0.28 | 1.9 ± 0.2 | – | –
PEAAVLFRQMATALAHCHQHGLVL [TRIB3] | 2.92 ± 0.55 | 2.88 ± 0.48 | – | –
PEARSRDATPPVSPINMEDQERIK [JUNB] | 5.37 ± 0.38 | 5.42 ± 0.33 | – | –
PEEELDFFEILRLFFPVIYDVKYL [CNOT7] | 2.35 ± 0.51 | 2.47 ± 0.61 | – | –
PEELRKVFITYSMDTAMEVVKFVN [TRAF3IP2] | 2.24 ± 0.46 | 2.08 ± 0.37 | – | –
PEFELLWKDIIHNPQALSPQFTGI [INTS3] | 2.16 ± 0.15 | 2.21 ± 0.32 | – | –
PENTNRQLLLQFERLVVLDYIIRN [PI4K2A] | 2.77 ± 0.34 | 2.56 ± 0.68 | – | –
PFTRRYYKEKFGITDLPRIDVSKR [EFHC1] | 3.01 ± 0.36 | 3.3 ± 0.095 | – | –
PGAEEAQDPEGKGEQEHSQQKEEE [CHGA] | 5.65 ± 0.15 | 5.58 ± 0.43 | – | –
PGAPPGRDLASVPPELTASRQSFR [DVL3] | 4.7 ± 0.23 | 4.84 ± 0.12 | – | –
PGDFDRNVPRICGVCGDRATGFHF [VDR] | 2.19 ± 0.13 | 2.64 ± 0.27 | – | –
PGPAPGSPGELEEDLLLPGACPGA [WEE1] | 5.24 ± 0.52 | 5.49 ± 0.13 | – | –

Sequence | protein stability index [1] | protein stability index [2] | protein stability index (treatment: DMSO, c terminus: native) | protein stability index (treatment: MLN4924 1 uM, 8 h, c terminus: native)
PGPPAAPRARRRLGSGPDRELRKP [PWWP2B] | 5.03 ± 0.56 | 5.12 ± 0.35 | – | –
PGPREALSQLRVLCCEWLRPEKHT [ZNF232] | 2.36 ± 0.21 | 2.15 ± 0.4 | – | –
PGQEAQRVVCGIDSSMILTVPGQA [NEK8] | 3.78 ± 0.23 | 3.81 ± 0.22 | – | –
PGRRDEDAGEGIQCSQRMLSFSDA [TMEM175] | 5.07 ± 0.18 | 4.91 ± 0.3 | – | –
PGSNLNLLTNNSGTPKDHDSPENG [ETS2] | 5.33 ± 0.22 | 5.31 ± 0.26 | – | –
PKAQSAMSPYLVPDTQALCHHLPV [SMG5] | 3.34 ± 0.2 | 3.38 ± 0.12 | – | –
PKWGWEQLEVTCTPYLKETLNSIW [POMT2] | 2.49 ± 0.58 | 2.12 ± 0.61 | – | –
PLVLSYIDLSAWCYYCQAYVHHQA [HDAC6] | 2.97 ± 0.81 | 3.27 ± 0.49 | – | –
PLVTMDDAMERTVQSFRHLRRVK [NSDHL] | – | – | 3 ± 0.25 | 3.23 ± 0.18
PMDLSTVKRKMDGREYPDAQGFAA [BRD3] | 4.21 ± 0.2 | 4.38 ± 0.43 | – | –
PPASARRLSVPRDSACDESSCIPK [IRX6] | 5.33 ± 0.16 | 5.31 ± 0.14 | – | –
PPGDIMFLLVQRFGELMRKLWNPR [USP39] | 2.77 ± 0.31 | 2.77 ± 0.17 | – | –
PPPHLLPEKHQVPEKLIWGDQDPL [WDR88] | 4.53 ± 0.23 | 4.44 ± 0.15 | – | –
PQLRICLRVSPAEQPRLEFLMRKC [FBXO33] | 2.15 ± 0.48 | 2.11 ± 0.22 | – | –
PQSLPSTPKAAWIREEGRCSSSDD [PBXIP1] | 5.25 ± 0.2 | 5.27 ± 0.14 | – | –
PQVLADLGSFESPANSETSDLTLY [PCDHGA10] | 4.19 ± 0.36 | 4.38 ± 0.34 | – | –
PRLHIVKADENNGFGSKNTAFCTH [TBX5] | 3.43 ± 0.12 | 3.28 ± 0.049 | – | –
PSASLGKASSRKPFGILSPNVLCS [FBXO34] | 2.71 ± 0.23 | 2.8 ± 0.11 | – | –
PSIYHTMASPCSAMAYHHDSRRIF [WDFY1] | 2.14 ± 0.72 | 2.18 ± 0.4 | – | –
PSLQAWNDAPCDKTFLFICKRPYV [CD207] | 2.17 ± 0.28 | 2.2 ± 0.21 | – | –
PSSYNCSQSILPLEHGSIYIPSSY [ESR2] | 2.17 ± 0.2 | 2.26 ± 0.26 | – | –
